Data reported in paper PMC4231766.

These substances were tested on 340R WT (MBP fusion) (Invertebrate iridescent virus 6 (IIV-6)) (assay: EMSA). Settings: EMSA 1 h at room temperature, 5 ng long dsRNA or 1 nM siRNA/19-nt dsRNA; 6% or 12% native PAGE; binding buffer not given (as ref 11); protein dialysis/storage ….

Row | Substance | Kd
1 | 21-nt siRNA duplex | 718 nM
2 | 126-nt long dsRNA | 139 nM
3 | 19-nt blunt dsRNA | 1170 nM
